Measurements as given in patent publication US20230340160A1 (published 2023).

Experiments:
[1] = biological target: T1, human CD3 expressed on Jurkat cells (human, UniProt P07766 23-207); experiment: flow cytometry on Jurkat cells
T1 construct: CD3 complex on Jurkat cells (ATCC TIB-152); also called huCD3
Method: (§1) Binding of the different bispecific constructs to CD3 on Jurkat cells (ATCC #TIB-152), and the respective tumor antigen on target cells, was determined by FACS. Briefly, cells were harvested, counted and checked for viability. 0.15 - 0.2 million cells per well (in PBS containing 0.1% BSA; 90 µl) were plated in a round-bottom 96-well plate and incubated with the indicated concentration of the bispecific constructs and corresponding IgG controls (10 µl) for 30 min at 4° C. For a better comparison, all constructs and IgG controls were normalized to same molarity. After the incubation, cells were centrifuged (5 min, 350 × g), washed with 150 µl PBS containing 0.1% BSA, resuspended and incubated for further 30 min at 4° C. with 12 µl/well of a FITC-or PE-conjugated secondary antibody. Bound constructs were detected using a FACSCantoII (Software FACS Diva). The “(scFv)₂” molecule was detected using a FITC-conjugated anti-His antibody (Lucerna, #RHIS-45F-Z). For all other molecules, a FITC- or PE-conjugated AffiniPure F(ab′)2 Fragment goat anti-human IgG Fcγ Fragment Specific (Jackson Immuno Research Lab # 109-096-098 / working solution 1:20, or #109-116-170 / working solution 1:80, respectively) was used. Cells were washed by addition of 120 µl/well PBS containing 0.1% BSA and centrifugation at 350 × g for 5 min. A second washing step was performed with 150 µl/well PBS containing 0.1% BSA. Unless otherwise indicated, cells were fixed with 100 µl/well fixation buffer (BD #554655) for 15 min at 4° C. in the dark, centrifuged for 6 min at 400 × g and kept in 200 µl/well PBS containing 0.1% BSA until the samples were measured with FACS CantoII. EC50 values were calculated using the GraphPad Prism software.
As a control, the equivalent maximum concentration of the corresponding IgGs and the background staining due to the labeled 2ndary antibody (goat anti-human FITC-conjugated AffiniPure F(ab′)2 Fragment, Fcγ Fragment-specific, Jackson Immuno Research Lab # 109-096-098) were assessed as well.

[2] = biological target: T2, human MCSP expressed on tumor cells (human, UniProt Q6UVK1 30-2322); experiment: cell-based or functional assay
[3] = biological target: T2, human MCSP expressed on tumor cells; experiment: flow cytometry on WM266-4 cells
Method: as §1
In a final experiment, binding of the “2+1 IgG Crossfab” (SEQ ID NOs 5, 23, 215, 217) and the “2+1 IgG Crossfab, inverted” (SEQ ID NOs 5, 23, 215, 219) constructs to human CD3, expressed by Jurkat cells, and to human MCSP, expressed by WM266-4 tumor cells was determined. As depicted in FIG. 58A and FIG. 58B the binding to human CD3 was reduced for the “2+1 IgG Crossfab, inverted” compared to the other construct, but the binding to human MCSP was comparably good.

[4] = biological target: T2, human MCSP expressed on tumor cells; experiment: cell-based or functional assay; remark: listed apart in the source
[5] = biological target: T1, human CD3 expressed on Jurkat cells; experiment: flow cytometry on Jurkat cells, 50 nM
Method: as §1
(§2) In a first experiment, different bispecific constructs targeting human MCSP and human CD3 were analyzed by flow cytometry for binding to human CD3 expressed on Jurkat, human T cell leukaemia cells, or to human MCSP on Colo-38 human melanoma cells.

[6] = biological target: T2, human MCSP expressed on tumor cells; experiment: flow cytometry on Colo-38 cells, 50 nM
Method: as §1, §2

T1 sequence (P07766 23-207 limits assumed): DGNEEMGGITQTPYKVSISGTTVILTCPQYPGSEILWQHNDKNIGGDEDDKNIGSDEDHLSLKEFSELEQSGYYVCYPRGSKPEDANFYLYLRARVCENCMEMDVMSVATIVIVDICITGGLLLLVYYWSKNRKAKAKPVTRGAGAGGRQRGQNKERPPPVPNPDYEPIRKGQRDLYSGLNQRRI
T2 sequence (Q6UVK1 30-2322): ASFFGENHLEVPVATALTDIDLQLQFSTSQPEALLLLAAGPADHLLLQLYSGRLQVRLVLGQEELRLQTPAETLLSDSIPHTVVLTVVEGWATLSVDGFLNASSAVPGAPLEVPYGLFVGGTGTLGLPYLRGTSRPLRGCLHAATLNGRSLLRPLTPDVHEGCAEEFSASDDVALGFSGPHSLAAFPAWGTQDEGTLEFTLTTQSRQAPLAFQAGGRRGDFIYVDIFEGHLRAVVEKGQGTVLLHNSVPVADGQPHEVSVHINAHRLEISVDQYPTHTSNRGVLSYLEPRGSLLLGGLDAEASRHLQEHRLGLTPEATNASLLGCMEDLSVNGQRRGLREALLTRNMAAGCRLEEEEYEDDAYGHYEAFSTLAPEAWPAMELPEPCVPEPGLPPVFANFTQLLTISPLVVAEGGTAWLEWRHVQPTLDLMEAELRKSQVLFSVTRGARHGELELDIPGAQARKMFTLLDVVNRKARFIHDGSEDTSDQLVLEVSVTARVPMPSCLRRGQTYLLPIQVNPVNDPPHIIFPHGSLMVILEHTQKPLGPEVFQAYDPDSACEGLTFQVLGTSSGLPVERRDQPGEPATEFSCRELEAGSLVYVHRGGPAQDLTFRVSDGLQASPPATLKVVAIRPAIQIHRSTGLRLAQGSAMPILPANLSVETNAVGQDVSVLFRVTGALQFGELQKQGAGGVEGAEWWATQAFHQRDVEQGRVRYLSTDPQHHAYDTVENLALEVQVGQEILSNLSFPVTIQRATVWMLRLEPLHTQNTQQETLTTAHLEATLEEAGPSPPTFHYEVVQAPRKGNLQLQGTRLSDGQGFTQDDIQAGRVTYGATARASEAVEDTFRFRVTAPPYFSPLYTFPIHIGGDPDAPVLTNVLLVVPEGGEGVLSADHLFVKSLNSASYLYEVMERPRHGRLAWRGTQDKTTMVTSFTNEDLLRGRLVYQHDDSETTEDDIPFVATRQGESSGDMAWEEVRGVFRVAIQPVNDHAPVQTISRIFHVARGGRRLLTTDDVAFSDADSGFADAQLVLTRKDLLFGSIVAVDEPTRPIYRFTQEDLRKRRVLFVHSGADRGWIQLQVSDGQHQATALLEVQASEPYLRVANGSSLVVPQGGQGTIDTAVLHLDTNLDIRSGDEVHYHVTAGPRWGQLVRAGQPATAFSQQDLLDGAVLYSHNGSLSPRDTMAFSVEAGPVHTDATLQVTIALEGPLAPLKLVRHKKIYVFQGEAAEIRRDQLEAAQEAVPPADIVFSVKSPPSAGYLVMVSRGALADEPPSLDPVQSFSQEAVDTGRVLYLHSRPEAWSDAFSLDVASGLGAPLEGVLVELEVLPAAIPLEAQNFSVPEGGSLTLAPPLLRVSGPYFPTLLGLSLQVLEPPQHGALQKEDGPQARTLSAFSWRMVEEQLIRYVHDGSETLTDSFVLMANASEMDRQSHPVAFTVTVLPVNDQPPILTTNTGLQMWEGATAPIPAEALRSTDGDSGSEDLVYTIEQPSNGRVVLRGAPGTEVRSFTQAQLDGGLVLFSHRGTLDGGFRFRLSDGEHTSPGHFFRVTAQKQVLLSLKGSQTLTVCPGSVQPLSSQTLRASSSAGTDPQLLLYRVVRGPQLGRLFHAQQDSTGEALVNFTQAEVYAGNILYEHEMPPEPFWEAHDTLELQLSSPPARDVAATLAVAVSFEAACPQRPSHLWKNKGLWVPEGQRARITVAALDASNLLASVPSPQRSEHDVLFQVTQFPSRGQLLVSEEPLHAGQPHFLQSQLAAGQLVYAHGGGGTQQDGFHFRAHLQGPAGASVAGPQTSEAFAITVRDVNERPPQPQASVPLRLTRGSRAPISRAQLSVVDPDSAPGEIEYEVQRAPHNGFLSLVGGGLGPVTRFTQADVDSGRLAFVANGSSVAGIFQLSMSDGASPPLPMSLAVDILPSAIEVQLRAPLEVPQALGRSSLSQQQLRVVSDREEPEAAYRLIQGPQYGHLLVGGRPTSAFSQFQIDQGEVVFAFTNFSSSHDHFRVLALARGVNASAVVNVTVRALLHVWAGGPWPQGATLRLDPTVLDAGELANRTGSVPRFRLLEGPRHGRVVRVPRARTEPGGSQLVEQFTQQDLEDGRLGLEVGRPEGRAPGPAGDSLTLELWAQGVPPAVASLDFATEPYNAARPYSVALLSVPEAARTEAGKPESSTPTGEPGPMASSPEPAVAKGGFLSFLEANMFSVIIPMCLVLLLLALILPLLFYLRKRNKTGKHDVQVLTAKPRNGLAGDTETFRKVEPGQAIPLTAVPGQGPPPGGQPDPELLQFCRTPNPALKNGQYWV

B1: “2+1 IgG Crossfab” (anti-MCSP/anti-huCD3); VH/VL exchange (LC007/V9) (bispecific antibody)
heavy 1: DIQMTQSPSSLSASVGDRVTITCRASQDIRNYLNWYQQKPGKAPKLLIYYTSRLESGVPSRFSGSGSGTDYTLTISSLQPEDFATYYCQQGNTLPWTFGQGTKVEIKSSASTKGPSVFPLAPSSKSTSGGTAALGCLVKDYFPEPVTVSWNSGALTSGVHTFPAVLQSSGLYSLSSVVTVPSSSLGTQTYICNVNHKPSNTKVDKKVEPKSCGGGGSGGGGSEVQLQESGPGLVKPSQSLSLTCSVTGYSITSGYYWNWIRQFPGNKLEWMGYITYDGSNNYNPSLKNRISITRDTSKNQFFLKLNSVTTEDTATYYCADFDYWGQGTTLTVSSASTKGPSVFPLAPSSKSTSGGTAALGCLVKDYFPEPVTVSWNSGALTSGVHTFPAVLQSSGLYSLSSVVTVPSSSLGTQTYICNVNHKPSNTKVDKKVEPKSCDKTHTCPPCPAPEAAGGPSVFLFPPKPKDTLMISRTPEVTCVVVDVSHEDPEVKFNWYVDGVEVHNAKTKPREEQYNSTYRVVSVLTVLHQDWLNGKEYKCKVSNKALGAPIEKTISKAKGQPREPQVCTLPPSRDELTKNQVSLSCAVKGFYPSDIAVEWESNGQPENNYKTTPPVLDSDGSFFLVSKLTVDKSRWQQGNVFSCSVMHEALHNHYTQKSLSLSPGK
heavy 2: not shown
light 1: DIVLTQSPSSLSASLGDRVTISCSASQGIRNYLNWYQQRPDGTVKLLIYYTSSLHSGVPSRFSGSGSGTDYSLTISNLEPEDIATYYCQQYSKLPWTFGGGTKLEIKRTVAAPSVFIFPPSDEQLKSGTASVVCLLNNFYPREAKVQWKVDNALQSGNSQESVTEQDSKDSTYSLSSTLTLSKADYEKHKVYACEVTHQGLSSPVTKSFNRGEC
light 2: EVQLVESGGGLVQPGGSLRLSCAASGYSFTGYTMNWVRQAPGKGLEWVALINPYKGVSTYNQKFKDRFTISVDKSKNTAYLQMNSLRAEDTAVYYCARSGYYGDSDWYFDVWGQGTLVTVSSASVAAPSVFIFPPSDEQLKSGTASVVCLLNNFYPREAKVQWKVDNALQSGNSQESVTEQDSKDSTYSLSSTLTLSKADYEKHKVYACEVTHQGLSSPVTKSFNRGEC
notes: also called 2+1 IgG Crossfab (V9)
- EC50 [1]: 1.66 nM
- EC50 of killing (LDH release) of MV-3 cells, human PBMCs, E:T 10:1, 21 h [2]: 0.0092 nM
- EC50 of killing (LDH release) of WM266-4 cells, human PBMCs, E:T 10:1, 21 h [2]: 0.0331 nM
- EC50 [3]: 0.95 nM
- EC50 [pM] of killing (LDH release) of MV-3 cells, human PBMCs, E:T 10:1, about 24 h [4]: 10 pM
- EC50 [pM] of killing (LDH release) of WM266-4 cells, human PBMCs, E:T 10:1, about 24 h [4]: 12.4 pM

B2: “2+1 IgG Crossfab”; CL/CH1 exchange (LC007/anti-CD3) (bispecific antibody)
heavy 1: not shown
heavy 2: EVQLQESGPGLVKPSQSLSLTCSVTGYSITSGYYWNWIRQFPGNKLEWMGYITYDGSNNYNPSLKNRISITRDTSKNQFFLKLNSVTTEDTATYYCADFDYWGQGTTLTVSSASTKGPSVFPLAPSSKSTSGGTAALGCLVKDYFPEPVTVSWNSGALTSGVHTFPAVLQSSGLYSLSSVVTVPSSSLGTQTYICNVNHKPSNTKVDKKVEPKSCDKTHTCPPCPAPEAAGGPSVFLFPPKPKDTLMISRTPEVTCVVVDVSHEDPEVKFNWYVDGVEVHNAKTKPREEQYNSTYRVVSVLTVLHQDWLNGKEYKCKVSNKALGAPIEKTISKAKGQPREPQVCTLPPSRDELTKNQVSLSCAVKGFYPSDIAVEWESNGQPENNYKTTPPVLDSDGSFFLVSKLTVDKSRWQQGNVFSCSVMHEALHNHYTQKSLSLSPGK
light 1: B1 light 1
light 2: QAVVTQESALTTSPGETVTLTCRSSTGAVTTSNYANWVQEKPDHLFTGLIGGTNKRAPGVPARFSGSLIGDKAALTITGAQTEDEAIYFCALWYSNLWVFGGGTKLTVLSSASTKGPSVFPLAPSSKSTSGGTAALGCLVKDYFPEPVTVSWNSGALTSGVHTFPAVLQSSGLYSLSSVVTVPSSSLGTQTYICNVNHKPSNTKVDKKVEPKSC
notes: also called 2+1 IgG Crossfab (anti-CD3)
- EC50 [1]: 10.3 nM
- EC50 [3]: 3.1 nM
- EC50 [pM] of killing (LDH release) of MV-3 cells, human PBMCs, E:T 10:1, about 24 h [4]: 11 pM
- EC50 [pM] of killing (LDH release) of WM266-4 cells, human PBMCs, E:T 10:1, about 24 h [4]: 11.3 pM

B3: “1+1 IgG scFab, one armed” (anti-MCSP/anti-huCD3) (bispecific antibody)
heavy 1: not shown
heavy 2: not shown
light: B1 light 1
- binding result [5]: binds
- binding result [6]: binds

B4: “2+1 IgG Crossfab, inverted”; CL/CH1 exchange (LC007/anti-CD3) (bispecific antibody)
heavy 1: not shown
heavy 2: B2 heavy 2
light 1: B1 light 1
light 2: B2 light 2
notes: also called 2+1 IgG Crossfab, inverted (anti-CD3)
- EC50 [1]: 32 nM
- EC50 [3]: 3.4 nM
- EC50 [pM] of killing (LDH release) of MV-3 cells, human PBMCs, E:T 10:1, about 24 h [4]: 3 pM
- EC50 [pM] of killing (LDH release) of WM266-4 cells, human PBMCs, E:T 10:1, about 24 h [4]: 7.1 pM

B5: CD3/MCSP “2+1 IgG Crossfab, inverted”; CL/CH1 exchange (LC007/V9) (bispecific antibody)
heavy 1: not shown
heavy 2: B2 heavy 2
light 1: B1 light 1
light 2: DIQMTQSPSSLSASVGDRVTITCRASQDIRNYLNWYQQKPGKAPKLLIYYTSRLESGVPSRFSGSGSGTDYTLTISSLQPEDFATYYCQQGNTLPWTFGQGTKVEIKSSASTKGPSVFPLAPSSKSTSGGTAALGCLVKDYFPEPVTVSWNSGALTSGVHTFPAVLQSSGLYSLSSVVTVPSSSLGTQTYICNVNHKPSNTKVDKKVEPKSC
notes: also called 2+1 IgG Crossfab, inverted (V9)
- EC50 [1]: 6.1 nM
- EC50 [3]: 0.57 nM
- EC50 [pM] of killing (LDH release) of MV-3 cells, human PBMCs, E:T 10:1, about 24 h [4]: 4.1 pM
- EC50 [pM] of killing (LDH release) of WM266-4 cells, human PBMCs, E:T 10:1, about 24 h [4]: 3.7 pM

B6: “1+1 IgG scFab, one armed inverted” (anti-MCSP/anti-huCD3) (bispecific antibody)
heavy 1: DIVLTQSPSSLSASLGDRVTISCSASQGIRNYLNWYQQRPDGTVKLLIYYTSSLHSGVPSRFSGSGSGTDYSLTISNLEPEDIATYYCQQYSKLPWTFGGGTKLEIKRTVAAPSVFIFPPSDEQLKSGTASVVCLLNNFYPREAKVQWKVDNALQSGNSQESVTEQDSKDSTYSLSSTLTLSKADYEKHKVYACEVTHQGLSSPVTKSFNRGECSGGGSGGGSEGGGSEGGGSEGGGSEGGGSGGGSGEVQLQESGPGLVKPSQSLSLTCSVTGYSITSGYYWNWIRQFPGNKLEWMGYITYDGSNNYNPSLKNRISITRDTSKNQFFLKLNSVTTEDTATYYCADFDYWGQGTTLTVSSASTKGPSVFPLAPSSKSTSGGTAALGCLVKDYFPEPVTVSWNSGALTSGVHTFPAVLQSSGLYSLSSVVTVPSSSLGTQTYICNVNHKPSNTKVDKKVEPKSCDGGGGSGGGGSGAQDKTHTCPPCPAPEAAGGPSVFLFPPKPKDTLMISRTPEVTCVVVDVSHEDPEVKFNWYVDGVEVHNAKTKPREEQYNSTYRVVSVLTVLHQDWLNGKEYKCKVSNKALPAPIEKTISKAKGQPREPQVCTLPPSRDELTKNQVSLSCAVKGFYPSDIAVEWESNGQPENNYKTTPPVLDSDGSFFLVSKLTVDKSRWQQGNVFSCSVMHEALHNHYTQKSLSLSPGK
heavy 2: not shown
light: not shown
- binding result [5]: binds
- binding result [6]: binds
